{"source": "paper PMC10338669", "target": "aSyn-MFP (alpha-synuclein with C-terminal MFP/mMaroon1, single-fusion acceptor) (UniProt P37840)", "assay": "FRET or BRET"}
{"substance": "O-aSyn (alpha-synuclein with N-terminal OFP/mCyRFP1, single-fusion donor) (from UniProt P37840 1-140) (natural protein)", "values": [{"measurement": "FRET efficiency E (Ex 473 nm)", "value": 0.266}, {"measurement": "FRET efficiency E (Ex 532 nm)", "value": 0.229}]}
